The supplement of paper PMC10065799, “High-throughput profiling of sequence recognition by tyrosine kinases and SH2 domains using bacterial peptide display” (eLife, 2023)

Experiments:
c-Src SH2 = assay: SH2 binding enrichment of the phosphorylated peptide, bacterial display (enrichment ratio); higher = better substrate or ligand; peptides without Tyr show the background
Grb2 SH2 = Grb2 SH2 (UniProt P62993); assay: as above
SHP2-C SH2 = assay: as above
Fyn = Fyn (UniProt P06241); assay: phosphorylation enrichment, bacterial display (enrichment ratio); higher = better substrate or ligand; peptides without Tyr show the background
MERTK = MERTK (UniProt Q12866); assay: as above
EPHB2 = EPHB2 (UniProt P29323); assay: as above
Hck = Hck (UniProt P08631); assay: as above
Jak2 = Jak2 (UniProt O60674); assay: as above
c-Src = assay: as above
c-Abl (mouse) = assay: as above
AncSZ = assay: as above
Fer (mouse) = assay: as above
Fes = Fes (UniProt P07332); assay: as above
FGFR3 = FGFR3 (UniProt P22607); assay: as above
FGFR1 = FGFR1 (UniProt P11362); assay: as above
EPHB1 = EPHB1 (UniProt P54762); assay: as above
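Throughout, for SH2 binding enrichment of the phosphorylated peptide, bacterial display: peptide library displayed on the E. coli surface as eCPX fusions, selected cells deep-sequenced, score is each peptide's frequency after selection divided by its frequency in the input.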
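Throughout, for phosphorylation enrichment, bacterial display: 11-residue human phosphosite peptides and single-mutation variants displayed on the E. coli surface, counted by deep sequencing, each peptide's frequency after selection divided by its frequency in the unselected input library; frequency after pTyr selection over input frequency; kinase dosed for 20-30% of maximal phosphorylation in three min.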

Chain of Grb2 SH2 (P62993 whole entry, looked up): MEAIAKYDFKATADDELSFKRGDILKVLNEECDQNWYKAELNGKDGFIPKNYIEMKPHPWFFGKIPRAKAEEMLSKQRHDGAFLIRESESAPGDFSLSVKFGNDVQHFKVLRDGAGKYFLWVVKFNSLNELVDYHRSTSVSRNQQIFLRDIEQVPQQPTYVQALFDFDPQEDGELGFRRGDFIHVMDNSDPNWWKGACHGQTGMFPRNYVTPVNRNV
Chain of EPHB1 (P54762 whole entry, looked up, the tested form may be a part): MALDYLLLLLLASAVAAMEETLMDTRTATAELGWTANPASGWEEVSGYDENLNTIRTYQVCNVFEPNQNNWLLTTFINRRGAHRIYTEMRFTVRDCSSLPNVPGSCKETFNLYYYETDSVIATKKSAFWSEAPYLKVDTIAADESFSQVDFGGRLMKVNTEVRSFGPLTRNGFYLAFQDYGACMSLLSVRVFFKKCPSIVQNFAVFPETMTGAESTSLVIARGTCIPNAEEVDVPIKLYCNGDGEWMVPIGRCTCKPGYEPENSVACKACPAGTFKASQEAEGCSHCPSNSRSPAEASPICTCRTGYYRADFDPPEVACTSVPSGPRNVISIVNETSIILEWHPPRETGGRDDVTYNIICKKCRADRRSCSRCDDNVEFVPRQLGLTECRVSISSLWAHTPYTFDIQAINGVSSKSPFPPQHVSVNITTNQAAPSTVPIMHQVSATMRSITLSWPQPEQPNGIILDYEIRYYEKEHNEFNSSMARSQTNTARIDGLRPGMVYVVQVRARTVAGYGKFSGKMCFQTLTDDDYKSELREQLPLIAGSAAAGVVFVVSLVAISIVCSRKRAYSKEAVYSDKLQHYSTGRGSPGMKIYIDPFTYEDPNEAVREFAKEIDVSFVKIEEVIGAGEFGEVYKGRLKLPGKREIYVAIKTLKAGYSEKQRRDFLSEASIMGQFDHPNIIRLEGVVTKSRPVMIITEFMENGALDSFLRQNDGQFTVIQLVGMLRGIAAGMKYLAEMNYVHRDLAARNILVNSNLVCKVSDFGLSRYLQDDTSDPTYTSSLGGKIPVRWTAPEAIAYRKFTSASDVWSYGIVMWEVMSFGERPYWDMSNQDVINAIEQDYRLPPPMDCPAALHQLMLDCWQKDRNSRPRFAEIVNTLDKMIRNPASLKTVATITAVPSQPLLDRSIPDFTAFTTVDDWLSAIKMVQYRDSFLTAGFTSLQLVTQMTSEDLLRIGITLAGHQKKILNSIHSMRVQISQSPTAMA
Chain of FGFR1 (P11362 whole entry, looked up): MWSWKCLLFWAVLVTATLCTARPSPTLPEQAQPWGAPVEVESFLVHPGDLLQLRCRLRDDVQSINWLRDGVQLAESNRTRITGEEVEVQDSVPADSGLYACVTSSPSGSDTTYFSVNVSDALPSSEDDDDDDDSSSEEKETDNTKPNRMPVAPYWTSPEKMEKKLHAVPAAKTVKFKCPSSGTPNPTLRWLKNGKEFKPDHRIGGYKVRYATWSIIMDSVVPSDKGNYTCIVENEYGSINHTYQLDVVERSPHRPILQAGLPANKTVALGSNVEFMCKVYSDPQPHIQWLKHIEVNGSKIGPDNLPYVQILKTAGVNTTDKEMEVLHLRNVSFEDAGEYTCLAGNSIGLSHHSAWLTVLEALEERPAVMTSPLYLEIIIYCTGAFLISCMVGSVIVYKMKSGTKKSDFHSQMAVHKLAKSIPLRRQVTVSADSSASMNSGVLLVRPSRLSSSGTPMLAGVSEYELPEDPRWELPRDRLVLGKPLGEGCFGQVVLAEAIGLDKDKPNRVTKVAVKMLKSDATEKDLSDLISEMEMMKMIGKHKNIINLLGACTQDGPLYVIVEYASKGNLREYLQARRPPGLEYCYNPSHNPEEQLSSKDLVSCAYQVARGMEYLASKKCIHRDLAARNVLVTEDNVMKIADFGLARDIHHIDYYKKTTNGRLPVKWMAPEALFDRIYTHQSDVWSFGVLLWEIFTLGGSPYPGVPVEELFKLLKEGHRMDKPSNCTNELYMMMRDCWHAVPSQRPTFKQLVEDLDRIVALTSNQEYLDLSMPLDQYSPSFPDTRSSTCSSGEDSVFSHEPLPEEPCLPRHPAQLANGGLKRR
Chain of EPHB2 (P29323 whole entry, looked up): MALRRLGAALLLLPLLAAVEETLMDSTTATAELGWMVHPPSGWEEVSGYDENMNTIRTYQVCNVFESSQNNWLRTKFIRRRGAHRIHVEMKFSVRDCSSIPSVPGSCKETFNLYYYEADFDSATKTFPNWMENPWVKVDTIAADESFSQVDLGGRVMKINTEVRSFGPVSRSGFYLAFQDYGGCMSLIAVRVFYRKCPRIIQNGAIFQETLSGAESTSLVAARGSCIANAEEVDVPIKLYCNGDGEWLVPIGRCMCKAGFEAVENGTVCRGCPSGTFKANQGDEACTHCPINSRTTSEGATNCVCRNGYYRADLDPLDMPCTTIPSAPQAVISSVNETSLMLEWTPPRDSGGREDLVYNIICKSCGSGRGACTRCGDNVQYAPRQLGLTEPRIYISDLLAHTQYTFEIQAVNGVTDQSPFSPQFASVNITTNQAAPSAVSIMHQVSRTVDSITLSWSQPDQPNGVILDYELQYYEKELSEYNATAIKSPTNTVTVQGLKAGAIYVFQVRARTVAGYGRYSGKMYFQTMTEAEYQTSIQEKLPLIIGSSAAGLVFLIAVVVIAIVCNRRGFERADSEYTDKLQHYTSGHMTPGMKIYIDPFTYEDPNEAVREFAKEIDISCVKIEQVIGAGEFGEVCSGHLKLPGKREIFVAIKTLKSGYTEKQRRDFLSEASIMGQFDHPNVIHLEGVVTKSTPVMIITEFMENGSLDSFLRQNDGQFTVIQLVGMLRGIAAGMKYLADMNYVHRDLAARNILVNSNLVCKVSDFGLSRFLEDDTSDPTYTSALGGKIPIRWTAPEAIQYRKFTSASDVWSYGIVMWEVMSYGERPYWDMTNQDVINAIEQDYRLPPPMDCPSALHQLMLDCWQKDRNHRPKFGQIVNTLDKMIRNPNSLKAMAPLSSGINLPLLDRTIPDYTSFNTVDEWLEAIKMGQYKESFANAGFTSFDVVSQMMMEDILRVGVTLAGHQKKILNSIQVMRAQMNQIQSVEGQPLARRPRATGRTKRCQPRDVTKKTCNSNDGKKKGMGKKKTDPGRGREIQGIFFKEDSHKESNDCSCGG
Chain of FGFR3 (P22607 whole entry, looked up): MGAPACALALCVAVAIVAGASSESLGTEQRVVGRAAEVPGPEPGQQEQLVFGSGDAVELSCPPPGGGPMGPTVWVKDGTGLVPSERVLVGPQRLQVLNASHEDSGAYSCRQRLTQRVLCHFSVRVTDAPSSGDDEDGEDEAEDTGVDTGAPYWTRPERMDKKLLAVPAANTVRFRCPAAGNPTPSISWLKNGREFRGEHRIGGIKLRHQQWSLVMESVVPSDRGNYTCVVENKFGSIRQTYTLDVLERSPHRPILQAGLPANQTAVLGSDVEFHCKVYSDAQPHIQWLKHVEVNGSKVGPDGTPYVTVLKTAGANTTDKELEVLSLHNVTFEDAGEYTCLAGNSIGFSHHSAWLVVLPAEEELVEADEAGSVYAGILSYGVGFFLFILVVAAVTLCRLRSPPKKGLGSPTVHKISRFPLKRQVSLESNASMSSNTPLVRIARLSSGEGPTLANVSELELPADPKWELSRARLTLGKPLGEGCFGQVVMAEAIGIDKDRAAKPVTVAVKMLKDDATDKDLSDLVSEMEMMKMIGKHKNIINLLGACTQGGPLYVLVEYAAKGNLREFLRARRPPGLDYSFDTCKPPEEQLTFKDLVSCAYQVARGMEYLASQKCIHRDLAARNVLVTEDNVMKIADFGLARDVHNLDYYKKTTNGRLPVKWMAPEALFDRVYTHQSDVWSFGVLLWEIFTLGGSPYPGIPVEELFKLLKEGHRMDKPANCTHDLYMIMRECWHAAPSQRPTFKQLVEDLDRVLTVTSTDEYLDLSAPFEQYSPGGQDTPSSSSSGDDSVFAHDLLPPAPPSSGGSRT
Chain of Fes (P07332 whole entry, looked up): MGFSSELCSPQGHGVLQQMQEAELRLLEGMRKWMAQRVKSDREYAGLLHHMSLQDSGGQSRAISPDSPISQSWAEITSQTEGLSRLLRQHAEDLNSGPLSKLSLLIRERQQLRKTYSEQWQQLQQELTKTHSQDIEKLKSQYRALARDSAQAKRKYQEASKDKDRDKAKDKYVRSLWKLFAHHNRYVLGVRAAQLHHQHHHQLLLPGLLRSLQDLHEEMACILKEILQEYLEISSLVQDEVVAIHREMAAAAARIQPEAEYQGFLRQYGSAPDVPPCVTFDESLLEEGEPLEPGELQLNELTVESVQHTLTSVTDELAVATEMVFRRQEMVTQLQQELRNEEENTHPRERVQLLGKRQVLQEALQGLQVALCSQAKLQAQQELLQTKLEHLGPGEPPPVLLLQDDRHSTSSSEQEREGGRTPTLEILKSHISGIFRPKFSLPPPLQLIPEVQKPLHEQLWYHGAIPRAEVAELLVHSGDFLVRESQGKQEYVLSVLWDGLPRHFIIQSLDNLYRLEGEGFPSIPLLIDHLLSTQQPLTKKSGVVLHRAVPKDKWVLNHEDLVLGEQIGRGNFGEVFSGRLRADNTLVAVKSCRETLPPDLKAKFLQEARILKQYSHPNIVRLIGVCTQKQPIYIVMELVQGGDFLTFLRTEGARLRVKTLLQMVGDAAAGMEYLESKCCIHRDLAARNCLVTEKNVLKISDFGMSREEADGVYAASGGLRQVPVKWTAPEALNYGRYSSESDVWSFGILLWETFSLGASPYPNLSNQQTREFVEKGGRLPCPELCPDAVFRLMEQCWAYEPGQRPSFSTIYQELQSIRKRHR

Sequence	SH2 binding enrichment (c-Src SH2)	SH2 binding enrichment (Grb2 SH2)	SH2 binding enrichment (SHP2-C SH2)	phosphorylation enrichment (Fyn)	phosphorylation enrichment (MERTK)	phosphorylation enrichment (EPHB2)	phosphorylation enrichment (Hck)	phosphorylation enrichment (Jak2)	phosphorylation enrichment (c-Src)	phosphorylation enrichment (c-Abl (mouse))	phosphorylation enrichment (AncSZ)	phosphorylation enrichment (Fer (mouse))	phosphorylation enrichment (Fes)	phosphorylation enrichment (FGFR3)	phosphorylation enrichment (FGFR1)	phosphorylation enrichment (EPHB1)
KSNSDYVDVLP [SH2D1B_Y127_N122K]	0.475	0.757	0.479	0.419	0.43	1.45	0.477	0.705	0.449	0.531	1.11	0.583	0.887	1.68	2.42	3.1
HNLFSYPTKHE [MYO3A_Y1396_YF]	0.597	0.576	0.523	0.631	0.868	0.624	0.874	1.01	0.531	0.65	0.773	0.624	0.989	0.738	0.74	0.65
PHQTIYSALMI [FGF23_Y70]	0.495	0.68	0.598	12.7	13.1	4.45	12.8	1.7	10.4	20.6	1.26	20.3	3.94	1.61	1.88	5.93
KERNQYGGVMV [MMP21_Y347_E349G]	0.525	0.74	0.854	0.556	0.394	0.394	0.474	0.425	0.507	0.44	0.534	0.474	0.594	0.475	0.418	0.361
IATTIYSGDKI [UGGT2_Y823_A821T]	0.516	0.893	0.695	0.591	0.507	0.557	0.791	0.701	0.748	0.778	0.638	0.41	0.752	0.493	0.57	0.576
CDIARYIVSQL [MAST2_Y461_P459A]	0.578	0.866	0.793	0.447	0.43	0.542	0.559	0.827	0.478	0.667	0.919	0.505	1.12	0.733	0.553	0.594
FQSKHYACIRQ [TIMP3_Y182_YF]	1.79	1.01	6.08	0.375	0.503	0.478	0.392	0.823	0.425	0.659	0.692	0.472	0.829	0.512	0.42	0.541
AAVDEYLEYRR [FAM221A_Y17]	0.539	0.846	1.17	0.62	0.469	0.477	0.863	1.21	0.925	0.698	1.1	0.401	1	0.522	0.513	0.531
VCRHNYGVVES [HLA-DRB1_Y112_Y107V]	1.13	0.828	0.801	0.398	0.484	1.5	0.484	0.659	0.361	0.543	0.768	0.428	0.793	0.566	0.547	0.82
VPVNGYQPVPA [ROR2_Y824]	0.691	0.91	0.634	0.382	0.382	0.391	0.422	0.416	0.413	0.439	0.859	0.52	0.748	0.517	0.55	0.554
TSYSGYRYHRH [NKAPL_Y94]	0.649	0.985	1.24	0.891	0.382	0.42	0.628	0.439	0.555	0.46	0.52	0.418	0.501	0.433	0.407	0.536
PHRSIYFSSPK [MPG_Y75_Y71H]	0.46	1.01	0.609	0.982	0.687	0.61	1.48	0.584	0.786	0.862	0.498	0.663	0.859	0.927	0.803	0.674
AQQPIYVRVEG [NLRP7_Y318]	0.609	0.84	0.682	2.18	2.46	4.96	1.74	0.965	3.6	1.54	0.967	0.707	0.963	0.787	1.12	5.88
SNYRAYATEPH [TNNI3_Y29]	0.378	0.869	0.551	0.404	0.397	0.452	0.382	0.435	0.362	0.503	0.49	0.379	0.475	0.447	0.422	0.372
REGKIYEFNQV [ZNF665_Y162_H157R_YF]	0.465	0.923	0.589	4.78	2.64	0.795	1.24	0.432	2.08	0.718	0.795	14.3	0.758	0.886	0.46	0.356
PPAPRYHHSAV [LZTR1_Y119]	1.07	1.31	1.1	0.457	0.351	0.44	0.717	0.781	0.384	0.677	0.655	0.587	1.26	0.79	0.38	0.432
